Test [1] addresses tunA (tunicate A, CBY12809.1), Oikopleura dioica S100 protein (Oikopleura dioica). Nature of the test: native MS; nanoESI time-of-flight MS; 10 or 100 mM ammonium acetate, pH 7.4; protein diluted from 10 uM to 0.01 uM; monomer to dimer.
Test [2] has the same target. Kind of test: AUC; sedimentation velocity; ~50 uM protein; 25 mM TES, 100 mM NaCl, 1 mM TCEP, pH 7.4; interference optics; c(s) by SedFit; monomer to dimer.
In test [3] the target is tunB (tunicate B, CBY30360.1), Oikopleura dioica S100 protein (Oikopleura dioica). Kind of test: native MS; nanoESI time-of-flight MS; 10 or 100 mM ammonium acetate, pH 7.4; protein diluted from 10 uM to 0.01 uM; monomer to dimer.
Test [4] shares this target. Kind of test: AUC; sedimentation velocity; ~50 uM protein; 25 mM TES, 100 mM NaCl, 1 mM TCEP, pH 7.4; interference optics; c(s) by SedFit; monomer to dimer.

As for “tunA (tunicate A, CBY12809.1), Oikopleura dioica S100 protein (natural protein)”, the stoichiometry N in test [1] and in test [2] was 2 each time.
Consider “tunB (tunicate B, CBY30360.1), Oikopleura dioica S100 protein (natural protein)”, for which the stoichiometry N in test [3] and in test [4] was 2 each time.

As usually defined, the stoichiometry N is a count of units in the complex or per binding partner.

These data come from article PMC5072561.
